Test results reported in paper PMC10663500, “High-throughput analysis system of interaction kinetics for data-driven antibody design” (Scientific Reports, 2023).
Substitutions are numbered along the chain they refer to.

B1: toripalimab Fab L.S32Y (Fab, V domains shown)
VH: QGQLVQSGAEVKKPGASVKVSCKASGYTFTDYEMHWVRQAPIHGLEWIGVIESETGGTAYNQKFKGRVTITADKSTSTAYMELSSLRSEDTAVYYCAREGITTVATTYYWYFDVWGQGTTVTVSS
VL: DVVMTQSPLSLPVTLGQPASISCRSSQSIVHYNGNTYLEWYLQKPGQSPQLLIYKVSNRFSGVPDRFSGSGSGTDFTLKISRVEAEDVGVYYCFQGSHVPLTFGQGTKLEIK
notes: as the heavy chain of Sm3; light chain of Sm3 with this change; numbers count from the chain's first residue; source: Brevibacillus, culture supernatant (ammonium sulfate precipitate); not shown: 6xHis, C-terminal, kept; 6xHN, C-terminal, kept
B2: toripalimab Fab L.N33Y (Fab, V domains shown)
VH: B1 VH
VL: B1 VL with Y32S, N33Y
notes: as for B1
B3: toripalimab Fab L.G34A (Fab, V domains shown)
VH: B1 VH
VL: B1 VL with Y32S, G34A
notes: as for B1
B4: toripalimab Fab L.V56A (Fab, V domains shown)
VH: B1 VH
VL: B1 VL with Y32S, V56A
notes: as for B1
B5: toripalimab Fab H.V50A (Fab, V domains shown)
VH: B1 VH with V50A
VL: B1 VL with Y32S
notes: heavy chain of Sm3 with this change; numbers count from the chain's first residue; as the light chain of Sm3; source: Brevibacillus, culture supernatant (ammonium sulfate precipitate); not shown: 6xHis, C-terminal, kept; 6xHN, C-terminal, kept
B6: toripalimab Fab L.R59A (Fab, V domains shown)
VH: B1 VH
VL: B1 VL with Y32S, R59A
notes: as for B1
B7: toripalimab Fab L.N58A (Fab, V domains shown)
VH: B1 VH
VL: B1 VL with Y32S, N58A
notes: as for B1
B8: toripalimab Fab L.N33A (Fab, V domains shown)
VH: B1 VH
VL: B1 VL with Y32S, N33A
notes: as for B1
B9: toripalimab Fab L.R59Y (Fab, V domains shown)
VH: B1 VH
VL: B1 VL with Y32S, R59Y
notes: as for B1
B10: toripalimab Fab L.F60Y (Fab, V domains shown)
VH: B1 VH
VL: B1 VL with Y32S, F60Y
notes: as for B1
B11: toripalimab Fab L.L38A (Fab, V domains shown)
VH: B1 VH
VL: B1 VL with Y32S, L38A
notes: as for B1
B12: toripalimab Fab L.S57A (Fab, V domains shown)
VH: B1 VH
VL: B1 VL with Y32S, S57A
notes: as for B1
B13: toripalimab Fab L.N35A (Fab, V domains shown)
VH: B1 VH
VL: B1 VL with Y32S, N35A
notes: as for B1
B14: toripalimab Fab L.F60A (Fab, V domains shown)
VH: B1 VH
VL: B1 VL with Y32S, F60A
notes: as for B1
B15: toripalimab Fab L.S61A (Fab, V domains shown)
VH: B1 VH
VL: B1 VL with Y32S, S61A
notes: as for B1
B16: toripalimab Fab L.N35Y (Fab, V domains shown)
VH: B1 VH
VL: B1 VL with Y32S, N35Y
notes: as for B1
B17: toripalimab Fab L.N58Y (Fab, V domains shown)
VH: B1 VH
VL: B1 VL with Y32S, N58Y
notes: as for B1
B18: toripalimab Fab L.F94A (Fab, V domains shown)
VH: B1 VH
VL: B1 VL with Y32S, F94A
notes: as for B1
B19: toripalimab Fab L.G34Y (Fab, V domains shown)
VH: B1 VH
VL: B1 VL with Y32S, G34Y
notes: as for B1
B20: toripalimab Fab L.K55A (Fab, V domains shown)
VH: B1 VH
VL: B1 VL with Y32S, K55A
notes: as for B1
B21: toripalimab Fab L.S57Y (Fab, V domains shown)
VH: B1 VH
VL: B1 VL with Y32S, S57Y
notes: as for B1
B22: toripalimab Fab L.K55Y (Fab, V domains shown)
VH: B1 VH
VL: B1 VL with Y32S, K55Y
notes: as for B1
B23: toripalimab Fab L.T36Y (Fab, V domains shown)
VH: B1 VH
VL: B1 VL with Y32S, T36Y
notes: as for B1
B24: toripalimab Fab L.V56Y (Fab, V domains shown)
VH: B1 VH
VL: B1 VL with Y32S, V56Y
notes: as for B1
B25: toripalimab Fab L.T36A (Fab, V domains shown)
VH: B1 VH
VL: B1 VL with Y32S, T36A
notes: as for B1
B26: toripalimab Fab L.S61Y (Fab, V domains shown)
VH: B1 VH
VL: B1 VL with Y32S, S61Y
notes: as for B1

How the values were obtained:
[1] = biological target: T1, human programmed cell death protein 1 (hPD-1) C93S (aa 24-167) (Homo sapiens, UniProt Q15116, C93S); experiment: SPR; Carterra LSA; Fab from the ammonium sulfate precipitate of the culture supernatant immobilised on a NiHC200M chip; hPD-1 (1-1024 nM) or mPD-1-Fc (4-1024 nM) as analyte, fourfold dilution series, no regeneration; HBS-EP pH 7.4, 25 °C; medians over the spots of a construct, KD = koff/kon; conditions: one partner purified
T1 construct: made as a fusion with a TEV site and human Fc; the Fc was cut off with TEV protease; source: Expi293F, purified (Protein A, TEV cleavage of Fc, SEC; monomer fractions); not shown: Fc (human), C-terminal, cleaved
T1 sequence (Q15116 24-167 C93S): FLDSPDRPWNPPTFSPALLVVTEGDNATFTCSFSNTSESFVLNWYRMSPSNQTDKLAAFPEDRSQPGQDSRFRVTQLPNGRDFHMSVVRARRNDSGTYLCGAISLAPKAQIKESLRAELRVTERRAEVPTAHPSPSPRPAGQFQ
Summary of the method: (§1)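 Human PD-1 (1–1024 nM) or mouse PD-1-Fc (4–1024 nM), in fourfold series, was flowed without regeneration over Fabs captured in duplicate on a NiHC200M chip (Carterra LSA, 25 °C), using 10 min association and 5 min dissociation. The Fabs had been recovered from Brevibacillus culture supernatants by ammonium sulfate precipitation and redissolved in HBS-EP. For binding constants, KD was defined as koff/kon from per-construct medians, with rates fitted by the kdka model under slow- or fast-dissociation settings (best fit) and unconfirmed binders set to kon 10^3 […] and koff 10^−2 s^−1.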

[2] = biological target: T2, mouse programmed cell death protein 1 Fc fusion protein (mPD-1-Fc), mPD-1 C60S (aa 25-167) (Mus musculus, UniProt Q02242, stabilised); experiment: as above; conditions: one partner purified
T2 construct: not cleaved; source: Expi293F, purified (Protein A, SEC; dimeric fraction); not shown: Fc (human), C-terminal, kept
Summary of the method: as §1

Row | Binder | Kd [1] | koff [1] | kon [1] | Kd [2] | koff [2] | kon [2]
1 | B1 | < 0.678 nM | < 1e-05 s⁻¹ | 14800 M⁻¹ s⁻¹ | 95.6 nM | 0.00346 s⁻¹ | 36100 M⁻¹ s⁻¹
2 | B2 | < 0.585 nM | < 1e-05 s⁻¹ | 17100 M⁻¹ s⁻¹ | 192 nM | 0.00979 s⁻¹ | 50900 M⁻¹ s⁻¹
3 | B3 | 2.35 nM | 4.8e-05 s⁻¹ | 20500 M⁻¹ s⁻¹ | 202 nM | 0.00961 s⁻¹ | 47500 M⁻¹ s⁻¹
4 | B4 | < 0.489 nM | < 1e-05 s⁻¹ | 20400 M⁻¹ s⁻¹ | 202 nM | 0.00784 s⁻¹ | 38700 M⁻¹ s⁻¹
5 | B5 | 1.66 nM | 2.65e-05 s⁻¹ | 15900 M⁻¹ s⁻¹ | 728 nM | 0.0237 s⁻¹ | 32500 M⁻¹ s⁻¹
6 | B6 | < 0.377 nM | < 1e-05 s⁻¹ | 26600 M⁻¹ s⁻¹ | 130 nM | 0.00551 s⁻¹ | 42400 M⁻¹ s⁻¹
7 | B7 | < 1.31 nM | < 1e-05 s⁻¹ | 7630 M⁻¹ s⁻¹ | 186 nM | 0.00793 s⁻¹ | 42600 M⁻¹ s⁻¹
8 | B8 | < 0.341 nM | < 1e-05 s⁻¹ | 29300 M⁻¹ s⁻¹ | 278 nM | 0.0135 s⁻¹ | 48400 M⁻¹ s⁻¹
9 | B9 | < 0.356 nM | < 1e-05 s⁻¹ | 28100 M⁻¹ s⁻¹ | 213 nM | 0.00916 s⁻¹ | 43000 M⁻¹ s⁻¹
10 | B10 | 0.608 nM | 1.12e-05 s⁻¹ | 18400 M⁻¹ s⁻¹ | 133 nM | 0.00463 s⁻¹ | 34800 M⁻¹ s⁻¹
11 | B11 | < 1.11 nM | < 1e-05 s⁻¹ | 8980 M⁻¹ s⁻¹ | 121 nM | 0.00533 s⁻¹ | 44000 M⁻¹ s⁻¹
12 | B12 | < 0.698 nM | < 1e-05 s⁻¹ | 14300 M⁻¹ s⁻¹ | 209 nM | 0.00805 s⁻¹ | 38500 M⁻¹ s⁻¹
13 | B13 | < 1.31 nM | < 1e-05 s⁻¹ | 7640 M⁻¹ s⁻¹ | 189 nM | 0.00781 s⁻¹ | 41200 M⁻¹ s⁻¹
14 | B14 | < 0.669 nM | < 1e-05 s⁻¹ | 14900 M⁻¹ s⁻¹ | 182 nM | 0.00605 s⁻¹ | 33300 M⁻¹ s⁻¹
15 | B15 | 1.39 nM | 2.72e-05 s⁻¹ | 19600 M⁻¹ s⁻¹ | 103 nM | 0.00447 s⁻¹ | 43400 M⁻¹ s⁻¹
16 | B16 | < 0.431 nM | < 1e-05 s⁻¹ | 23200 M⁻¹ s⁻¹ | 194 nM | 0.00881 s⁻¹ | 45500 M⁻¹ s⁻¹
17 | B17 | < 1.62 nM | < 1e-05 s⁻¹ | 6150 M⁻¹ s⁻¹ | 226 nM | 0.00916 s⁻¹ | 40500 M⁻¹ s⁻¹
18 | B18 | < 2.46 nM | < 1e-05 s⁻¹ | 4060 M⁻¹ s⁻¹ | 177 nM | 0.000967 s⁻¹ | 5460 M⁻¹ s⁻¹
19 | B19 | < 0.445 nM | < 1e-05 s⁻¹ | 22500 M⁻¹ s⁻¹ | 154 nM | 0.00613 s⁻¹ | 39900 M⁻¹ s⁻¹
20 | B20 | < 1.18 nM | < 1e-05 s⁻¹ | 8480 M⁻¹ s⁻¹ | 182 nM | 0.00821 s⁻¹ | 45200 M⁻¹ s⁻¹
21 | B21 | < 0.338 nM | < 1e-05 s⁻¹ | 29500 M⁻¹ s⁻¹ | 119 nM | 0.0054 s⁻¹ | 45300 M⁻¹ s⁻¹
22 | B22 | 1.4 nM | 1.3e-05 s⁻¹ | 9280 M⁻¹ s⁻¹ | 235 nM | 0.0094 s⁻¹ | 40000 M⁻¹ s⁻¹
23 | B23 | < 0.372 nM | < 1e-05 s⁻¹ | 26900 M⁻¹ s⁻¹ | 164 nM | 0.00757 s⁻¹ | 46100 M⁻¹ s⁻¹
24 | B24 | < 1.47 nM | < 1e-05 s⁻¹ | 6790 M⁻¹ s⁻¹ | 290 nM | 0.0104 s⁻¹ | 35800 M⁻¹ s⁻¹
25 | B25 | < 1.51 nM | < 1e-05 s⁻¹ | 6610 M⁻¹ s⁻¹ | 331 nM | 0.0155 s⁻¹ | 46700 M⁻¹ s⁻¹
26 | B26 | < 0.5 nM | < 1e-05 s⁻¹ | 20000 M⁻¹ s⁻¹ | 103 nM | 0.0044 s⁻¹ | 42500 M⁻¹ s⁻¹
